Here are results for one substance from US20220048993A1.

This assay deals with truncated human FcRH5 (deletion of amino acids 1-744) with N-terminal gD tag (human) (UniProt Q96RD9). The assay is described as follows: cell-based or functional assay.
Chain of truncated human FcRH5 (deletion of amino acids 1-744) with N-terminal gD tag (human) (Q96RD9 745-977, stated change not applied): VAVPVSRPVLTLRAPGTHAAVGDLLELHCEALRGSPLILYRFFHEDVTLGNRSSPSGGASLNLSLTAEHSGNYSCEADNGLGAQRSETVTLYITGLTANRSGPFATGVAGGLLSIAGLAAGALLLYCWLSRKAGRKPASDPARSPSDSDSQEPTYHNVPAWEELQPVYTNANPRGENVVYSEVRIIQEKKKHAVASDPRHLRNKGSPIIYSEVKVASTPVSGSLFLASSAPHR

With “anti-gD/UCHT1.v9 TDB (bispecific antibody)”, the target cell killing, EC50 came to 0.19 nM.
